In patent EP1870419A2 (Praecis Pharmaceuticals Incorporated, dated 2000):
Square brackets hold non-standard residues; d marks the D form. dPhe(4-F) = N[C@H](Cc1ccc(F)cc1)C(=O)O

These binders were tested against T1, Aβ1-40 peptide (natural β-amyloid peptide, β-AP1-40) (In the fibril binding assay the peptide stood as aged fibrils (many copies, number not stated). In the nucleation assay [CUT]) (assay: cell-based or functional assay).

| Binder | Nucleation assay Δlag, 1.25 µM compound | Nucleation assay Δlag, 2.5 µM compound | Nucleation assay Δlag, 5 µM compound |
| --- | --- | --- | --- |
| {N‑isopropyl}-G[dA][dF][dF][dV][dL]-NH2 (also: TFA salt) [PPI 970: TFA·N-isopropyl-(Gaffvl)-NH2] | 1 fold of control lag time | > 5 fold of control lag time | > 5 fold of control lag time |
| {N,N‑diethyl}-[dA][dF][dF][dV][dL]-NH2 (also: TFA salt) [PPI 1006: TFA·N,N-diethyl-(affvl)-NH,] | 1 fold of control lag time | 1 fold of control lag time | 1 fold of control lag time |
| {N,N‑dimethyl}-[dA][dF][dF][dV][dL]-NH2 (also: TFA salt) [PPI 913: TFA·N,N-dimethyl-(affvl)-NH2] | 1 fold of control lag time | 1 fold of control lag time | 1 fold of control lag time |
| {N‑methyl}-G[dA][dF][dF][dV][dL]-NH2 (also: TFA salt) [PPI 968: TFA·N-methyl-(Gaffvl)-NH2] | 2 fold of control lag time | > 5 fold of control lag time | > 5 fold of control lag time |
| {N,N‑diethyl}-G[dA][dF][dF][dV][dL]-NH2 (also: TFA salt) [PPI 1005: TFA·N,N-diethyl-(Gaffvl)-NH2] | 1 fold of control lag time | 3 fold of control lag time | 3 fold of control lag time |
| H-[dL][dV][dF][dF][dA]-NMe2 (also: TFA salt) [PPI 993: TFA·H-(lvffa)-dimethylamide] | 1 fold of control lag time | 1 fold of control lag time | 1 fold of control lag time |
| {N,N‑dimethyl}-G[dA][dF][dF][dV][dL]-NH2 (also: TFA salt) [PPI 803: TFA·N,N-dimethyl-(Gaffvl)-NH2] | < 1 fold of control lag time | < 1 fold of control lag time | < 1 fold of control lag time |

Biological target: T1, Aβ1-40 peptide (natural β-amyloid …)
Assay: cell-based or functional assay
Remark: another data set of the same source

| Binder | Nucleation assay data (Δlag), 0.3 µM compound | Nucleation assay data (Δlag), 1 µM compound | Nucleation assay data (Δlag), 3 µM compound |
| --- | --- | --- | --- |
| H-[dL][dF][dK][dV][dL]-NH2 (also: TFA salt) [PPI 1321: 2TFA·H-(lfkvl)-NH2] | < 1 fold of control lag time | < 1 fold of control lag time | < 1 fold of control lag time |
| H-[dL][dF][dPhe(4-F)][dV][dL]-NH2 (also: TFA salt) [PPI-1319: TFA·H-(lf-[p-F]f-vl)-NH2] | 1 fold of control lag time | > 5 fold of control lag time | > 5 fold of control lag time |
